{
  "source": "paper doi:10.1101/2023.05.25.542057",
  "about": "(bioRxiv, 2023)",
  "molecular_target": "the molecule itself",
  "assay": "SEC-SAXS",
  "data": [
    {"protein": "CDAN1-interacting nuclease 1 (CDIN1), full-length, recombinant from bacteria (natural protein) MILTKAQYDEIAQCLVSVPPTRQSLRKLKQRFPSQSQATLLSIFSQEYQKHIKRTHAKHHTSEAIESYYQRYLNGVVKNGAAPVLLDLANEVDYAPSLMARLILERFLQEHEETPPSKSIINSMLRDPSQIPDGVLANQVYQCIVNDCCYGPLVDCIKHAIGHEHEVLLRDLLLEKNLSFLDEDQLRAKGYDKTPDFILQVPVAVEGHIIHWIESKASFGDECSHHAYLHDQFWSYWNRFGPGLVIYWYGFIQELDCNRERGILLKACFPTNIVTLCHSIA", "values": [
      {"measurement": "stoichiometry N", "value": 2}
    ]}
  ]
}
